Laboratory results taken from paper PMC5875430 (Leukemia, 2013).

Key:
[1] = molecular target: T1, class IV granulocyte colony-stimulating factor receptor (alternatively spliced, truncated isoform) (human, UniProt Q99062-4 25-783); assay: radioligand binding
T1 sequence (looked up): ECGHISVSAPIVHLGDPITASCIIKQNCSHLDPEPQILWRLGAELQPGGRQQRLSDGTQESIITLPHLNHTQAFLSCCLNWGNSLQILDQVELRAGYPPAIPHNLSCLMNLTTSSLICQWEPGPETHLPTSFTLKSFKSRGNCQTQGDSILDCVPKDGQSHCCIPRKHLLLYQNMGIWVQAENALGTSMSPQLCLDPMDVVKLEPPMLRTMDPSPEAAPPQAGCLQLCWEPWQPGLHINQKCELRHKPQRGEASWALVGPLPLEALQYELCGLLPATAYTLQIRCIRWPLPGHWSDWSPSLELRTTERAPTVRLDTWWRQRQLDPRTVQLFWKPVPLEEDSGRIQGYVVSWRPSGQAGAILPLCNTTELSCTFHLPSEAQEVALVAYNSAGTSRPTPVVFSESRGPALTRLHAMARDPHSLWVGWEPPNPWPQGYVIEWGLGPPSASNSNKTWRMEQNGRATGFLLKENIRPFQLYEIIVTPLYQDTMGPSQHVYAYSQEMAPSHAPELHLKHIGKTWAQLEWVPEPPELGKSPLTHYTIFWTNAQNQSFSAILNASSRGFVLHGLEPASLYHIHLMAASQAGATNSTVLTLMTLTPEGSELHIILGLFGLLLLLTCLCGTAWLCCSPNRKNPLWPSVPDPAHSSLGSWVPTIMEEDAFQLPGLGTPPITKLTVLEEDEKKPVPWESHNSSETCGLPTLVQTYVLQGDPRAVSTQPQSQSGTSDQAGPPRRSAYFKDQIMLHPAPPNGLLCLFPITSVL

[2] = molecular target: T2, class I granulocyte colony-stimulating factor receptor (canonical, full-length isoform) (human, UniProt Q99062 25-836); assay: radioligand binding
T2 sequence (looked up): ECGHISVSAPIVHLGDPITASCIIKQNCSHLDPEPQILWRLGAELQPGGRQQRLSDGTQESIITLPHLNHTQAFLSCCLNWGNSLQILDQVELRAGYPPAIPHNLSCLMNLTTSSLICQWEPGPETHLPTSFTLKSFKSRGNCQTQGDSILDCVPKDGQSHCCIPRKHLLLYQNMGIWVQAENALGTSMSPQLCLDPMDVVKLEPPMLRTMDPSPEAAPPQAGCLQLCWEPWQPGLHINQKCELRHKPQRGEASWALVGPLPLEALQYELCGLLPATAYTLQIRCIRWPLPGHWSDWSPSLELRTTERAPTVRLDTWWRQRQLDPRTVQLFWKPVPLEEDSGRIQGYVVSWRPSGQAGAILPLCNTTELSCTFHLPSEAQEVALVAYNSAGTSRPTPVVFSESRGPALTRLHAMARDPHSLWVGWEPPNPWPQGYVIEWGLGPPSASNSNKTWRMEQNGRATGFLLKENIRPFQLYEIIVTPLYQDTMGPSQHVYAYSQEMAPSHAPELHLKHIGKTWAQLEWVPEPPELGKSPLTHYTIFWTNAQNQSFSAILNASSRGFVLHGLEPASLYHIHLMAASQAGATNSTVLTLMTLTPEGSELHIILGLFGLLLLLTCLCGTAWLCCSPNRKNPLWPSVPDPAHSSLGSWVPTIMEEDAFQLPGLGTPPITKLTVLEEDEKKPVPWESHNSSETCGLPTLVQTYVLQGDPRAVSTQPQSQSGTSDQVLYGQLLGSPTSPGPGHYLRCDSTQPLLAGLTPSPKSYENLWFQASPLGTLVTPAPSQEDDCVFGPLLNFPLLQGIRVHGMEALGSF

B1: human granulocyte colony-stimulating factor (ligand, UniProt P09919 31-207, looked up)
chain: TPLGPASSLPQSFLLKCLEQVRKIQGDGAALQEKLVSECATYKLCHPEELVLLGHSLGIPWAPLSSCPSQALQLAGCLSQLHSGLFLYQGLLQALEGISPELGPTLDTLQLDVADFATTIWQQMEELGMAPALQPTQGAMPAFASAFQRRAGGVLVASHLQSFLEVSYRVLRHLAQP
modifications: 125I Bolton-Hunter reagent label (site not stated)
Kd [1]: 0.53 nM | Kd [2]: 0.58 nM
